In IntAct's records for PubMed 17909018:

B1: Cyclin-dependent kinase inhibitor 2A (Homo sapiens), P42771 (parent)
chain: MEPAAGSSMEPSADWLATAAARGRVEEVRALLEAGALPNAPNSYGRRPIQVMMMGSARVAELLLLHGAEPNCADPATLTRPVHDAAREGFLDTLVVLHRAGARLDVRDAWGRLPVDLAEELGHRDVARYLRAAAGGTRGSNHARIDAAEGPSDIPD

Assays:
cdk4_human CDK4, P11802 [1] = variants of: B1; conditions: with cdk4_human CDK4, P11802
cdk4_human CDK4, P11802 [2] = variants of: B1; conditions: with cdk4_human CDK4, P11802; remark: listed apart in the source
cdk6_human CDK6, Q00534 = variants of: B1; conditions: with cdk6_human CDK6, Q00534
cdk6_human CDK6, Q00534, sequence (Q00534 whole entry): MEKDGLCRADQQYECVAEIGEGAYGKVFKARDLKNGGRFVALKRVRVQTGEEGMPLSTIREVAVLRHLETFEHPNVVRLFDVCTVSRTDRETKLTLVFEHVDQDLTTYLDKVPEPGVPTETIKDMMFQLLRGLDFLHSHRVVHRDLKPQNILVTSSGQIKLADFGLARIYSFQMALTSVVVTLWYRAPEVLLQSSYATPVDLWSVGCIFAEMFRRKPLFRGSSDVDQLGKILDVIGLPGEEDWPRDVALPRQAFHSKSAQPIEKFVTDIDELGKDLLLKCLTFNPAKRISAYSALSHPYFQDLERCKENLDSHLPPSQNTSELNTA

cdk4_human CDK4, P11802, sequence (P11802 whole entry): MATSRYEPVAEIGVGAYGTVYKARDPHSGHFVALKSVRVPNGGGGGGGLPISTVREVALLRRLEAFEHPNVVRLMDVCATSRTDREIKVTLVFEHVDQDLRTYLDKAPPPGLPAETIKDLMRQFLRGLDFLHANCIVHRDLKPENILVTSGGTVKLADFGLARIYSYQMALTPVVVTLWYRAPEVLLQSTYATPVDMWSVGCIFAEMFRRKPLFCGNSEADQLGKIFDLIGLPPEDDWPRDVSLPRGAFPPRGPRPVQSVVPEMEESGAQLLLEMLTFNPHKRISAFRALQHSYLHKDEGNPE

effect of a mutation on the interaction (cdk4_human CDK4, P11802 [1])	effect of a mutation on the interaction (cdk4_human CDK4, P11802 [2])	effect of a mutation on the interaction (cdk6_human CDK6, Q00534)	Variant
disrupting interaction			R24P
disrupting interaction	disrupting interaction strength	disrupting interaction	A20P
